In PMC10501769 (eLife, 2023):

Molecular target: the molecule itself
Test: SEC

B1: His-tagged Rv0158 protein of Mycobacterium tuberculosis H37Rv (natural protein)
chain: MPSDTSPNGLSRREELLAVATKLFAARGYHGTRMDDVADVIGLNKATVYHYYASKSLILFDIYRQAAEGTLAAVHDDPSWTAREALYQYTVRLLTAIASNPERAAVYFQEQPYITEWFTSEQVAEVREKEQQVYEHVHGLIDRGIASGEFYECDSHVVALGYIGMTLGSYRWLRPSGRRTAKEIAAEFSTALLRGLIRDESIRNQSPLGTRKET
notes: also called Histidine-tagged Rv0158; hexahistidine-tagged Rv0158 protein
  stoichiometry N: 2
